According to publication doi:10.1101/489898:

Target: horse liver alcohol dehydrogenase (horse)
Assay: cryo-EM structure

stoichiometry N: 2
Substance: horse liver alcohol dehydrogenase (enzyme)
